Measurements taken from patent publication US20260108607A1 (BEIJING DCTY BIOTECH, published 2026).

Experiments:
[1] = molecular target: T1, EGFR (wild type) expressed on target cells (UniProt P00533 25-1210, limits assumed); test: flow cytometry of the subclone supernatant on F98npEGFR cells (Geom mean)
T1 construct: whole, on cells; also called F98npEGFR; U87MG-EGFR

[2] = molecular target: T2, EGFRvIII overexpressed on target cells (UniProt P00533 25-1210); test: flow cytometry of the subclone supernatant on F98npEGFRvIII cells (Geom mean)
T2 construct: whole, on cells; Same protein on two cell lines: F98npEGFRvIII for flow cytometry, U87MG-EGFRvIII for the killing assays; also called F98npEGFRvIII; U87MG-EGFRvIII

[3] = molecular target: T3, EGFRvIII target antigen (SPR ligand) (UniProt P00533 25-645, limits assumed); test: SPR
T3 construct: also called EGFRvIII antigen

[4] = molecular target: T3, EGFRvIII target antigen (SPR ligand); test: SPR; antibody as analyte
[5] = molecular target: T3, EGFRvIII target antigen (SPR ligand); test: SPR; EGFRvIII as ligand, antibody as analyte

Row | binding result [1] | binding result [2] | fold reduction of affinity against the murine antibody from clone #40-2 [3] [fold] | Kd [4] [nM] | koff [4] [s⁻¹] | kon [4] [M⁻¹ s⁻¹] | Kd [5] [nM] | koff [5] [s⁻¹] | kon [5] [M⁻¹ s⁻¹] | Binder
1 | no binding | binds | – | – | – | – | – | – | – | 20-2-13 (antibody, V domains shown, also called 90F6C1) VH: QVQLQQPGAELVKPGASVKLSCKASGYSFTRYWMHWVKQRPGQGLEWIGEINPSNGRANYNEKFMSKATLTVDKSSSTAYMQLSSLTSEDSAVYYCARGREITTGFAYWGQGTLVTVSA VL: SIVMTQTPKFLLVSAGDRVTITCKASQSVSNDVVWYQQKPGQSPKLLIYYASNRYTGVPDRFTGSGYGTDFTFTITTVQAEDLAVYFCQQDYSSPWTFGGGTKLEIK
2 | – | – | ~2 | 138 | 0.00343 | 24800 | – | – | – | humanized antibody 40-2-H11 (98G2E9-VH5 + VL7) (scFv, the format in the SPR assay is not clearly stated) scFv: EVQLLESGGGLVQPGGSLKLSCAASGFTFSGYAMSWVRQTPGKGLEWVATITSGGSYTYYPDSVKGRFTISRDNSKNTLYLQMNSLRAEDTAMYYCARKDYGNYWFAYWGQGTLVTVSSGGGGSGGGGSGGGGSGGGGSDVVMTQSPLSLPVTLGDQASISCRSSQSLVHSDGNTYLHWYLQKPGQSPKLLIYKVSNRFSGVPDRFSGSGSGTDFTLKISRVEAEDVGVYFCSQTTQVPWTFGGGTKLEIK
3 | – | – | ~2 | 102 | 0.00301 | 29400 | – | – | – | humanized antibody 40-2-H13 (98G2E9-VH6 + VL6) (scFv, the format in the SPR assay is not clearly stated) scFv: EVQLLESGGGLVQPGGSLKLSCAASGFTFSGYAMSWVRQTPEKGLEWVATITSGGSYTYYPDSVKGRFTISRDNAKNTLYLQMNSLRAEDTAMYYCARKDYGNYWFAYWGQGTLVTVSSGGGGSGGGGSGGGGSGGGGSDVVMTQSPLSLPVTLGQQASISCRSSQSLVHSDGNTYLHWYLQKPGQSPKLLIYKVSNRFSGVPDRFSGSGSGTDFTLKISRVEAEDVGVYFCSQTTQVPWTFGGGTKLEIK
4 | – | – | ~2 | 102 | 0.00266 | 26000 | – | – | – | humanized antibody 40-2-H12 (98G2E9-VH6 + VL5) (scFv, the format in the SPR assay is not clearly stated) scFv: EVQLLESGGGLVQPGGSLKLSCAASGFTFSGYAMSWVRQTPEKGLEWVATITSGGSYTYYPDSVKGRFTISRDNAKNTLYLQMNSLRAEDTAMYYCARKDYGNYWFAYWGQGTLVTVSSGGGGSGGGGSGGGGSGGGGSDVVMTQSPLSLPVTLGDPASISCRSSQSLVHSDGNTYLHWYLQRPGQSPRLLIYKVSNRFSGVPDRFSGSGSGTDFTLKISRVEAEDVGVYFCSQTTQVPWTFGGGTKLEIK
5 | – | – | ~2 | 135 | 0.00345 | 25600 | – | – | – | humanized antibody 40-2-H10 (98G2E9-VH5 + VL6) (scFv, the format in the SPR assay is not clearly stated) scFv: EVQLLESGGGLVQPGGSLKLSCAASGFTFSGYAMSWVRQTPGKGLEWVATITSGGSYTYYPDSVKGRFTISRDNSKNTLYLQMNSLRAEDTAMYYCARKDYGNYWFAYWGQGTLVTVSSGGGGSGGGGSGGGGSGGGGSDVVMTQSPLSLPVTLGQQASISCRSSQSLVHSDGNTYLHWYLQKPGQSPKLLIYKVSNRFSGVPDRFSGSGSGTDFTLKISRVEAEDVGVYFCSQTTQVPWTFGGGTKLEIK
6 | – | – | ~2 | 112 | 0.00307 | 27400 | – | – | – | humanized antibody 40-2-H9 (98G2E9-VH5 + VL5) (scFv, the format in the SPR assay is not clearly stated) scFv: EVQLLESGGGLVQPGGSLKLSCAASGFTFSGYAMSWVRQTPGKGLEWVATITSGGSYTYYPDSVKGRFTISRDNSKNTLYLQMNSLRAEDTAMYYCARKDYGNYWFAYWGQGTLVTVSSGGGGSGGGGSGGGGSGGGGSDVVMTQSPLSLPVTLGDPASISCRSSQSLVHSDGNTYLHWYLQRPGQSPRLLIYKVSNRFSGVPDRFSGSGSGTDFTLKISRVEAEDVGVYFCSQTTQVPWTFGGGTKLEIK
7 | no binding | – | – | – | – | – | 23.7 | 0.00119 | 50100 | murine antibody 20-2-1 (clone 83F7B2) (antibody, V domains shown, Murine monoclonal antibody purified from the subclone supernatant) VH: QIQLVQSGPELKKPGETVKISCKASGYTFTDFSMHWVKQAPGKGLKWMGWINTETGEPSYADDFKGRFAFSLETSASTAYLQINNLKNEDTATYFCANYGYDVRGDYWGQGTTLTVSS VL: EIVLTQSPTTMAASPGEKITITCSASSSISSNYLHWYQQKPGFSPKLLIYGTSNLASGVPARFSGSGSGTSYSLTIGTMEAEDVATYYCHQGSSIPLTFGAGTKLELK
8 | no binding | – | – | – | – | – | – | 0.00864 | – | murine antibody 20-2-4 (clone 88A3C8) (antibody, V domains shown, Murine monoclonal antibody purified from the subclone supernatant; also called clone #4) VH: EVQLQQSGAELVRPGALVKLSCKASGFNIKDYYMHWVKQRPEQGLEWIGWIDPENGNTIYDPKFQGKASITADTSSNTAYLQLSSLTSEDTAVYYCARGWFAYWGQGTLVTVSA VL: DILMTQSPSSLAMSVGQKVTMSCKSSQSLLNSSNQKNHLAWYQQKPGQSPKLLVYFASTRASGVPDRFIGSGSGTDFTLTISSVQAEDLADYFCQQHYSTPLTFGAGTKLELK
9 | no binding | – | – | – | – | – | – | 0.0165 | – | murine antibody 20-2-28 (clone 84C3G8H7) (antibody, V domains shown, Murine monoclonal antibody purified from the subclone supernatant; also called clone #28) VH: EVQLQQSGAELVRPGALVKLSCKASGFNIKDYYMHWVKQRPEQGLEWIGWIDPENGNTIYDPKFQGKASITADTSSNTAYLQLSSLTSEDTAVYYCARGWFAYWGQGTLVTVSA VL: not shown
